Measurements published in patent US11999805.

Legend:
Peptide 90 = tested on: T1, Peptide 90
T1 sequence: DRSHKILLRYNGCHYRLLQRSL

90-1-18 = tested on: T2, 90-1-18
T2 sequence: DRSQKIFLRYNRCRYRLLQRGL

90-2-18 = tested on: T3, 90-2-18
T3 sequence: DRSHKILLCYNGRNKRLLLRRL

Peptide 91 = tested on: T4, Peptide 91
T4 sequence: VYDFYRMLSHFFLKGPSR

Peptide 73 = tested on: T5, Peptide 73
T5 sequence: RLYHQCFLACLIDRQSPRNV

Peptide 82 = tested on: T6, Peptide 82
T6 sequence: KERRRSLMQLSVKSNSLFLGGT

82-2-28 = tested on: T7, 82-2-28
T7 sequence: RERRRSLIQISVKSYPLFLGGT

63-2-87 = tested on: T8, 63-2-87
T8 sequence: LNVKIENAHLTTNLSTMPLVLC

82-2-21 = tested on: T9, 82-2-21
T9 sequence: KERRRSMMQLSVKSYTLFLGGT

Peptide 60 = tested on: T10, Peptide 60
T10 sequence: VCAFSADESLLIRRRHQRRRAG

Peptide 63 = tested on: T11, Peptide 63
T11 sequence: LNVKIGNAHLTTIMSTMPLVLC

60-1-10 = tested on: T12, 60-1-10
T12 sequence: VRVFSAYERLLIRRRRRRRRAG

Peptide 50 = tested on: T13, Peptide 50
T13 sequence: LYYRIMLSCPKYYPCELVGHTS

50-2-16 = tested on: T14, 50-2-16
T14 sequence: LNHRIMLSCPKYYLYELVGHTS

90-2-5 = tested on: T15, 90-2-5
T15 sequence: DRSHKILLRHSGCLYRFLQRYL

60-1-56 = tested on: T16, 60-1-56
T16 sequence: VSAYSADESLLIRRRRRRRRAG

Peptide 15 = tested on: T17, Peptide 15
T17 sequence: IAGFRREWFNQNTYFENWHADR

82-2-12 = tested on: T18, 82-2-12
T18 sequence: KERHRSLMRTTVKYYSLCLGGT

90-1-27 = tested on: T19, 90-1-27
T19 sequence: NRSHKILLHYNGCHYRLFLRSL

Peptide 61 = tested on: T20, Peptide 61
T20 sequence: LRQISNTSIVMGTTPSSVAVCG

50-20-14 = tested on: T21, 50-20-14
T21 sequence: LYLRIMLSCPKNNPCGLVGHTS

63-2-27 = tested on: T22, 63-2-27
T22 sequence: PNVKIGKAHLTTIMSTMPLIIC

90-1-50 = tested on: T23, 90-1-50
T23 sequence: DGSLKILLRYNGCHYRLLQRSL

Peptide 80 = tested on: T24, Peptide 80
T24 sequence: TESIRSYFAMTIRRNH

Peptide 99 = tested on: T25, Peptide 99
T25 sequence: RRSHIAWLLAMSLTWYS

99-2-2 = tested on: T26, 99-2-2
T26 sequence: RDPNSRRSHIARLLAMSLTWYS

99-1-1 = tested on: T27, 99-1-1
T27 sequence: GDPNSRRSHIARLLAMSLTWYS

50-2-13 = tested on: T28, 50-2-13
T28 sequence: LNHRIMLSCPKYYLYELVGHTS

SpyCas9 (S. pyogenes) = SpyCas9 (S. pyogenes) (UniProt Q99ZW2); assay: cell-based or functional assay

## SpyCas9
Peptide 90
  % activity, FRET cleavage assay: Peptide 60, 90, and 91 significantly reduced activity of SauCas9 and SpyCas9 at 200 µM (P<0.005)
  substrate cleavage, FRET assay, peptide 200 to 12.5 µM: the peptides inhibited substrate cleavage in a peptide concentration-dependent manner
90-1-18
  decrease in cleavage-based fluorescence at 200 µM peptide, FRET assay: All of the MPs drastically reduced SpyCas9 substrate cleavage at 200 µM with a greater than 88% decrease in fluorescence
  substrate cleavage, denaturing 15% urea PAGE, peptide 200 µM: 17 hits were identified that reduced fluorescence and substrate cleavage in the Cas9 cleavage reaction (visualized by Gel) at 200 µM
90-2-18
  decrease in cleavage-based fluorescence at 200 µM peptide, FRET assay: All of the MPs drastically reduced SpyCas9 substrate cleavage at 200 µM with a greater than 88% decrease in fluorescence
  substrate cleavage, denaturing 15% urea PAGE, peptide 200 µM: 17 hits were identified that reduced fluorescence and substrate cleavage in the Cas9 cleavage reaction (visualized by Gel) at 200 µM
Peptide 91
  % activity, FRET cleavage assay: Peptide 60, 90, and 91 significantly reduced activity of SauCas9 and SpyCas9 at 200 µM (P<0.005)
  substrate cleavage, FRET assay, peptide 200 to 12.5 µM: the peptides inhibited substrate cleavage in a peptide concentration-dependent manner
Peptide 73
  substrate cleavage, FRET assay, peptide 200 to 12.5 µM: the peptides inhibited substrate cleavage in a peptide concentration-dependent manner
Peptide 82
  substrate cleavage, FRET assay, peptide 200 to 12.5 µM: the peptides inhibited substrate cleavage in a peptide concentration-dependent manner
82-2-28
  decrease in cleavage-based fluorescence at 200 µM peptide, FRET assay: All of the MPs drastically reduced SpyCas9 substrate cleavage at 200 µM with a greater than 88% decrease in fluorescence
  substrate cleavage, denaturing 15% urea PAGE, peptide 200 µM: 17 hits were identified that reduced fluorescence and substrate cleavage in the Cas9 cleavage reaction (visualized by Gel) at 200 µM
63-2-87
  decrease in cleavage-based fluorescence at 200 µM peptide, FRET assay: All of the MPs drastically reduced SpyCas9 substrate cleavage at 200 µM with a greater than 88% decrease in fluorescence
  substrate cleavage, denaturing 15% urea PAGE, peptide 200 µM: 17 hits were identified that reduced fluorescence and substrate cleavage in the Cas9 cleavage reaction (visualized by Gel) at 200 µM
82-2-21
  decrease in cleavage-based fluorescence at 200 µM peptide, FRET assay: All of the MPs drastically reduced SpyCas9 substrate cleavage at 200 µM with a greater than 88% decrease in fluorescence
  substrate cleavage, denaturing 15% urea PAGE, peptide 200 µM: 17 hits were identified that reduced fluorescence and substrate cleavage in the Cas9 cleavage reaction (visualized by Gel) at 200 µM
Peptide 60
  % activity, FRET cleavage assay: Peptide 60, 90, and 91 significantly reduced activity of SauCas9 and SpyCas9 at 200 µM (P<0.005)
  substrate cleavage, FRET assay, peptide 200 to 12.5 µM: the peptides inhibited substrate cleavage in a peptide concentration-dependent manner
Peptide 63
  substrate cleavage, FRET assay, peptide 200 to 12.5 µM: the peptides inhibited substrate cleavage in a peptide concentration-dependent manner
60-1-10
  decrease in cleavage-based fluorescence at 200 µM peptide, FRET assay: All of the MPs drastically reduced SpyCas9 substrate cleavage at 200 µM with a greater than 88% decrease in fluorescence
  substrate cleavage, denaturing 15% urea PAGE, peptide 200 µM: 17 hits were identified that reduced fluorescence and substrate cleavage in the Cas9 cleavage reaction (visualized by Gel) at 200 µM
Peptide 50
  substrate cleavage, FRET assay, peptide 200 to 12.5 µM: the peptides inhibited substrate cleavage in a peptide concentration-dependent manner
50-2-16
  decrease in cleavage-based fluorescence at 200 µM peptide, FRET assay: All of the MPs drastically reduced SpyCas9 substrate cleavage at 200 µM with a greater than 88% decrease in fluorescence
  substrate cleavage, denaturing 15% urea PAGE, peptide 200 µM: 17 hits were identified that reduced fluorescence and substrate cleavage in the Cas9 cleavage reaction (visualized by Gel) at 200 µM
90-2-5
  decrease in cleavage-based fluorescence at 200 µM peptide, FRET assay: All of the MPs drastically reduced SpyCas9 substrate cleavage at 200 µM with a greater than 88% decrease in fluorescence
  substrate cleavage, denaturing 15% urea PAGE, peptide 200 µM: 17 hits were identified that reduced fluorescence and substrate cleavage in the Cas9 cleavage reaction (visualized by Gel) at 200 µM
60-1-56
  decrease in cleavage-based fluorescence at 200 µM peptide, FRET assay: All of the MPs drastically reduced SpyCas9 substrate cleavage at 200 µM with a greater than 88% decrease in fluorescence
  substrate cleavage, denaturing 15% urea PAGE, peptide 200 µM: 17 hits were identified that reduced fluorescence and substrate cleavage in the Cas9 cleavage reaction (visualized by Gel) at 200 µM
Peptide 15
  % activity, FRET cleavage assay: Peptide15 significantly reduced activity of CjeCas9 and SpyCas9 and SauCas9 at 200 µM (P<0.01)
  substrate cleavage, FRET assay, peptide 200 to 12.5 µM: the peptides inhibited substrate cleavage in a peptide concentration-dependent manner
82-2-12
  decrease in cleavage-based fluorescence at 200 µM peptide, FRET assay: All of the MPs drastically reduced SpyCas9 substrate cleavage at 200 µM with a greater than 88% decrease in fluorescence
  substrate cleavage, denaturing 15% urea PAGE, peptide 200 µM: 17 hits were identified that reduced fluorescence and substrate cleavage in the Cas9 cleavage reaction (visualized by Gel) at 200 µM
90-1-27
  decrease in cleavage-based fluorescence at 200 µM peptide, FRET assay: All of the MPs drastically reduced SpyCas9 substrate cleavage at 200 µM with a greater than 88% decrease in fluorescence
  substrate cleavage, denaturing 15% urea PAGE, peptide 200 µM: 17 hits were identified that reduced fluorescence and substrate cleavage in the Cas9 cleavage reaction (visualized by Gel) at 200 µM
Peptide 61
  substrate cleavage, FRET assay, peptide 200 to 12.5 µM: the peptides inhibited substrate cleavage in a peptide concentration-dependent manner
50-20-14
  decrease in cleavage-based fluorescence at 200 µM peptide, FRET assay: All of the MPs drastically reduced SpyCas9 substrate cleavage at 200 µM with a greater than 88% decrease in fluorescence
  substrate cleavage, denaturing 15% urea PAGE, peptide 200 µM: 17 hits were identified that reduced fluorescence and substrate cleavage in the Cas9 cleavage reaction (visualized by Gel) at 200 µM
63-2-27
  decrease in cleavage-based fluorescence at 200 µM peptide, FRET assay: All of the MPs drastically reduced SpyCas9 substrate cleavage at 200 µM with a greater than 88% decrease in fluorescence
  substrate cleavage, denaturing 15% urea PAGE, peptide 200 µM: 17 hits were identified that reduced fluorescence and substrate cleavage in the Cas9 cleavage reaction (visualized by Gel) at 200 µM
90-1-50
  decrease in cleavage-based fluorescence at 200 µM peptide, FRET assay: All of the MPs drastically reduced SpyCas9 substrate cleavage at 200 µM with a greater than 88% decrease in fluorescence
  substrate cleavage, denaturing 15% urea PAGE, peptide 200 µM: 17 hits were identified that reduced fluorescence and substrate cleavage in the Cas9 cleavage reaction (visualized by Gel) at 200 µM
Peptide 80
  substrate cleavage, FRET assay, peptide 200 to 12.5 µM: the peptides inhibited substrate cleavage in a peptide concentration-dependent manner
Peptide 99
  % activity, FRET cleavage assay: Peptide 99 significantly reduced activity of all three Cas9 variants at 100 and 200 µM (P<0.005)
  substrate cleavage, FRET assay, peptide 200 to 12.5 µM: the peptides inhibited substrate cleavage in a peptide concentration-dependent manner
99-2-2
  decrease in cleavage-based fluorescence at 200 µM peptide, FRET assay: All of the MPs drastically reduced SpyCas9 substrate cleavage at 200 µM with a greater than 88% decrease in fluorescence
  substrate cleavage, denaturing 15% urea PAGE, peptide 200 µM: 17 hits were identified that reduced fluorescence and substrate cleavage in the Cas9 cleavage reaction (visualized by Gel) at 200 µM
99-1-1
  decrease in cleavage-based fluorescence at 200 µM peptide, FRET assay: All of the MPs drastically reduced SpyCas9 substrate cleavage at 200 µM with a greater than 88% decrease in fluorescence
  substrate cleavage, denaturing 15% urea PAGE, peptide 200 µM: 17 hits were identified that reduced fluorescence and substrate cleavage in the Cas9 cleavage reaction (visualized by Gel) at 200 µM
50-2-13
  decrease in cleavage-based fluorescence at 200 µM peptide, FRET assay: All of the MPs drastically reduced SpyCas9 substrate cleavage at 200 µM with a greater than 88% decrease in fluorescence
  substrate cleavage, denaturing 15% urea PAGE, peptide 200 µM: 17 hits were identified that reduced fluorescence and substrate cleavage in the Cas9 cleavage reaction (visualized by Gel) at 200 µM

## AcrIIA4
SpyCas9 (S. pyogenes)
  reduced editing (compared to plasmid control), A549 GFP reporter cells: 74%
